{
  "source": "IntAct's records for PubMed 18001824",
  "target": "rnf8_human RNF8 (UniProt O76064)",
  "sequence (O76064 whole entry)": "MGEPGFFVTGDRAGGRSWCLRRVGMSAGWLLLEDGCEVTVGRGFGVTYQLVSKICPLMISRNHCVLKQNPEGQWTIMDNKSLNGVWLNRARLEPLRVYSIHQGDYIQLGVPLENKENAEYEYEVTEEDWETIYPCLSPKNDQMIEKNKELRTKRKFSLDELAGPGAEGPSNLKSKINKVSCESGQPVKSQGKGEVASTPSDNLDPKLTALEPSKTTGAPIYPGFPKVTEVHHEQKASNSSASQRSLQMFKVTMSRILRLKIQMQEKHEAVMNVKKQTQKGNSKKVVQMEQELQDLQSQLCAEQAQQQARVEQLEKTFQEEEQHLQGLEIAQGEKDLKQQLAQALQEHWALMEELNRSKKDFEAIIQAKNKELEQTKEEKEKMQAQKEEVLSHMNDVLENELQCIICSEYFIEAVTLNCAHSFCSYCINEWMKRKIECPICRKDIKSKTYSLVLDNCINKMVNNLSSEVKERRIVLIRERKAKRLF",
  "data": [
    {"substance": "Mediator of DNA damage checkpoint protein 1 (Homo sapiens), Q14676 T699A;T719A;T752A", "values": [
      {"measurement": "effect of a mutation on the interaction", "result": "decreasing interaction"}
    ]}
  ]
}
